According to FireProtDB (doi:10.1021/bi952930e):

B1: Ribonuclease, P00648 (parent)
chain: MMKMEGIALKKRLSWISVCLLVLVSAAGMLFSTAAKTETSSHKAHTEAQVINTFDGVADYLQTYHKLPDNYITKSEAQALGWVASKGNLADVAPGKSIGGDIFSNREGKLPGKSGRTWREADINYTSGFRNSDRILYSSDWLIYKTTDHYQTFTKIR

Variants of: B1
Conditions: Bacillus amyloliquefaciens, pH 6.3, 25 °C, Urea, MES 100 mM, reversible: yes, structure 1BNI, whole UniProt chain shown

Row | Variant | ddG of mutation (higher = less stable) (Fluorescence) [kcal/mol] | denaturant m value (Fluorescence) [kcal/mol/M] | denaturant midpoint (higher = more stable) (Fluorescence) [M] | ddG of mutation (higher = less stable) (CD) [kcal/mol] | denaturant m value (CD) [kcal/mol/M] | denaturant midpoint (higher = more stable) (CD) [M]
1 | MMKMEGIALKKRLSWISVCLLVLVSAAGMLFSTAAKTETSSHKAHTEAQVINTFDGVADYLQTYHKLPDNYITKSEAQALGWVASKGNLADVAPGKSIGGDIFSNREGKLPGKSGRTWREADINYTSGFQNSDRILYSSDWLIYKTTDHYQTFTKIR [R130Q] | 2.05 | 2.28 | 3.51 |  |  | 
2 | MMKMEGIALKKRLSWISVCLLVLVSAAGMLFSTAAKTETSSHKAHTEAQVINTFDGVADYLQTYHKLPDNYITKSEAQALGWVASKGNLADVAPGKSIGGDIFSNREGKLPGKSGRTWREADINYTSGFKNSDRILYSSDWLIYKTTDHYQTFTKIR [R130K] | 4.13 | 1.68 | 2.43 |  |  | 
3 | MMKMEGIALKKRLSWISVCLLVLVSAAGMLFSTAAKTETSSHKAHTEAQVINTFDGVADYLQTYHKLPDNYITKSEAQALGWVASKGNLADVAPGKSIGGDIFSNREGKLPGKSGRTWREANINYTSGFRNSDRILYSSDWLIYKTTDHYQTFTKIR [D122N] | 4.8 | 1.69 | 2.08 |  |  | 
4 | MMKMEGIALKKRLSWISVCLLVLVSAAGMLFSTAAKTETSSHKAHTEAQVINTFDGVADYLQTYHKLPDNYITKSEAQALGWVASKGNLADVAPGKSIGGDIFSNREGKLPGKSGMTWREADINYTSGFRNSDRILYSSDWLIYKTTDHYQTFTKIR [R116M] | 2.12 | 2.14 | 3.47 |  |  | 
5 | MMKMEGIALKKRLSWISVCLLVLVSAAGMLFSTAAKTETSSHKAHTEAQVINTFDGVADYLQTYHKLPDNYITKSEAQALGWVASKGNLADVAPGKSIGGDIFSNREGKLPGKSGKTWREADINYTSGFRNSDRILYSSDWLIYKTTDHYQTFTKIR [R116K] |  |  |  | 3.13 | 1.89 | 2.94
6 | MMKMEGIALKKRLSWISVCLLVLVSAAGMLFSTAAKTETSSHKAHTEAQVINTFDGVADYLQTYHKLPDNYITKSEAQALGWVASKGNLADVAPGKSIGGDIFSNREGKLPGKSGSTWREADINYTSGFRNSDRILYSSDWLIYKTTDHYQTFTKIR [R116S] | 2.72 | 1.86 | 3.16 |  |  | 
7 | MMKMEGIALKKRLSWISVCLLVLVSAAGMLFSTAAKTETSSHKAHTEAQVINTFDGVADYLQTYHKLPDNYITKSEAQALGWVASKGNLADVAPGKSIGGDIFSNREGKLPGKSGRTWREADINYTSGFRNSDRILYSSNWLIYKTTDHYQTFTKIR [D140N] | 4.11 | 1.99 | 2.44 |  |  | 
